# Measurements as given in patent US8329186B2, “Treatment of inflammation using BST2 inhibitor” (Isu Abxis Co., Ltd, priority 2004, dated 2012).
# d = 2'-deoxy (DNA); r = 2'-OH (RNA)
# B1: PEG-conjugated Bst2 decoy: aldehyde PEG-conjugated human Bst2 decoy sample (conjugate, UniProt Q10589 49-161, looked up)
# extracellular domain: NSEACRDGLRAVMECRNVTHLLQQELTEAQKGFQDVEAQAATCNHTVMALMASLDAEKAQGQKKVEELEGEITTLNHKLQDASAEVERLRRENQVLSVRIADKKYYPSSQDSS
# modifications: extracellular domain aldehyde PEG conjugate
# notes: aldehyde PEG-conjugated human Bst2 decoy sample
# B2: 2-15: anti-Bst2/Damp1 monoclonal antibody; heavy chain variable SEQ ID NO:77, kappa SEQ ID NO:88 (antibody, V domains shown)
# VH: MAQSVKESEGRLVTPGTPLTLTCTVSGFSLSNSGMSWVRQAPGKGLEWIGLINSYGTTYYASWAKGRFTISKTSTTVELKITSPTTEDTATYFCARGAGSSYGLWGQGTLVTVSSAS
# VL: QAAELVMTQTPSSTSTAVGDTVTIKCQASQSIGSNLAWYQQKPGQPPKILIYSASNLASGVPSRFKGSGSGTEYTLTISGVQREDAATYYCLGSDSSWDTVFGGGTELEILRTV
# modifications: 2-15 heavy chain variable region amino acid sequence; 2-15 kappa chain variable region amino acid sequence
# B3: mouse Damp1 decoy: soluble Damp1 protein fragment having the amino acid sequence of SEQ ID NO:2 (protein, listed as Mus musculus)
# chain: FAVTANSVACRDGLRAQAECRNTTHLLQRQLTRTQDSLLQAETQANSCNLTVVTLQESLEKKVSQALEQQARIKELENEVTKLNQELENLRIQKETSSTVQVNS
# B4: Bst2 decoy-IgG Fc fusion proteins: recombinant chimeric fusion proteins of the extracellular domain of human Bst2 and the Fc region of human IgG (protein)
# chain: NSEACRDGLRAVMECRNVTHLLQQELTEAQKGFQDVEAQAATCNHTVMALMASLDAEKAQGQKKVEELEGEITTLNHKLQDASAEVERLRRENQVLSVRIADKKYYPSSQD
# modifications: left off: a dimerising Fc or GST
# Experiments:
# [1] = system: ICAM1 expression or Bst2 expression; assay: RT-PCR of Bst2 and ICAM1 expression in IFNγ-treated HUVEC after siRNA; format: cell-based, human
# Procedure: (§1) HUVECs were cultured in 12-well plates with or without transfection of Bst2 siRNA or control siRNA for 6 hr, then treated with or without IFNγ for 24 hr. In some experiments, cells were treated with crude media containing Bst2 decoy or mouse anti-human ICAM1 antibodies. After a wash with PBS (phosphate buffered saline), U937 cells were resuspended in serum free medium at 2×10^6 cells/ml. Assays were initiated by the addition of 200 ul U937 cells to HUVEC for a final volume of 1 ml. After 4 hr at 37° C., unbound U937 cells were removed by washing plates three times with PBS. Bound cells were fixed by the addition of 4% paraformaldehyde in PBS, and the bound cells were counted under microscopy in different fields. All statistical analyses were performed in Excel and statistical significance were evaluated with Student's t test. In some experiments, RNA samples were obtained from HUVECs after treatment with IFNγ and/or siRNAs, and real-time polymerase chain reaction (RT-PCR) analyses were performed.
# RT-PCR analyses were performed.
# HUVECs and U937 cells = assay: Heterotypic aggregation/adhesion between IFN-γ-treated HUVECs and U937 cells; format: cell-based, human
# Procedure: HUVECs (1−5×10^4 cells/ml) were seeded onto a 12-well cell culture plate. After one day, the medium was exchanged with a low-serum medium containing 0.5% FBS, and the cells were pretreated with interferon-gamma (IFN-γ; Calbiochem) in a final concentration 10 ng/ml for 24 hrs. Then, the pretreated HUVECs were co-cultured with U937 cells (2×10^6 cells/ml, 500 μl) at 37° C. for 4 hrs. The co-culture was washed with phosphate buffer three or four times, and the remaining cells were fixed with 4% paraformaldehyde and microscopically observed.
# HUVECs were transfected with an expression vector for Bst2, treated with or without IFN-γ and then transfected with Bst2 siRNA. These cells were assessed for U937 cell adhesion.
# as §1
# [2] = In vivo stability of PEG-conjugated Bst2 decoy in rats (ELISA of blood samples); set-up: species or system rat; conditions: tail vein, 0.4 to 2 mg/kg, compared to Bst2 decoy
# Procedure: The PEG-conjugated forms of Bst2 decoy, prepared in Example 11-1, were injected into the tail vein of 7 week-old male Sprague-Dawley rats in a dose of 0.4 to 2 mg/kg. A negative control group was injected with an equal dose of physiological saline. Also, an equal dose of Bst2 decoy protein was used as a positive control. Blood samples were collected before drug administration, and 2 min, 5 min, 10 min, 30 min, 1 hr, 2 hrs, 6 hrs, 12 hrs and 24 hrs after drug administration from the jugular vein using a cannula. The collected blood samples were analyzed by ELISA. A 96-well plate was coated with an anti-Bst2 decoy antibody (100 ng/ml in PBS) at 4° C. for 8 hrs or longer, and was blocked with albumin in PBS at 37° C. for 2 hrs. The plate was reacted with a proper dilution of rat serum or Bst2 decoy (standard sample) at 37° C. for 2 hrs. The plate was then reacted with a monoclonal antibody (mAb conjugated with horseradish peroxidase, Roche Inc.) recognizing the histidine tag added to the C-terminus of Bst2 decoy at 37° C. for 2 hrs. After being well washed, the plate was treated with a substance of peroxidase, and absorbance was measured at 450 nm. Quantitation of the PEG-conjugated Bst2 decoys present in blood was performed using the standard samples (FIG. 18). […]
# mouse model of asthma = assay: Ovalbumin-induced mouse model of asthma: infiltrating cells in bronchoalveolar lavage; format: in vivo; conditions: ovalbumin-sensitized mice
# Procedure: (§2) A mouse model of asthma was prepared by sensitizing mice (C57B6, 8 weeks) with ovalbumin. In detail, mice were initially sensitized for five continuous days by intranasal injection of ovalbumin. After three weeks, mice were intranasally sensitized again with ovalbumin for five continuous days. One week after the secondary sensitization, mice were challenged intranasally with ovalbumin three times every 24 hrs to induce asthma. Herein, a Bst2 decoy was intravenously injected into mice 30 min before sensitization with ovalbumin, and was injected into mice 30 min before the first sensitization and the last injection of ovalbumin. Three days after the last injection, serum samples, lung tissues, and the like were collected from mice.
# A mouse model of asthma was prepared as described in Example 8-1.
# The effect of Bst2 decoy-Fc fusions on immune cell infiltration was assessed as described in Example 8-2. When ovalbumin-sensitized mice were treated with a Bst2 decoy, the total number of infiltrating cells was decreased and, especially, the number of neutrophils, eosinophils and lymphocytes except for macrophage was decreased in bronchoalveolar lavage (BAL) (FIG. 27).
# A mouse model of asthma was prepared as described in Example 8-1. The effect of anti-Bst2/Damp1 antibodies on immune cell infiltration was assessed as described in Example 8-2. […]
# U937 cells = assay: Competitive inhibition of U937 cell binding to Bst2 decoy coated plates; set-up: species or system human; conditions: cells pre-incubated with fusion proteins 2 hrs
# Procedure: Competitive inhibition of Fc fusion proteins in the binding between BST2 decoy and cells was measured as follows. Flat-bottomed 96-well plates were coated with Bst2 decoy (50 ug/ml) with sodium bicarbonate (100 mM, pH 9.5) for 2 hrs at 37° C. The plates were washed with PBS (pH 7.4) and incubated with 1% bovine serum albumin (BSA) at 25° C. After a rinse with PBS (pH 7.4) containing 1 mM CaCl2 and 0.5 mM MgCl2, U937 cells (1×10^6/ml) were added to each Bst2-coated well. Before the addition, cells were pre-incubated with BST2 decoy-Fc fusion proteins for 2 hrs at 37° C. Bound cells were counted as described in Example 20.
# IL-4, IL-5 and IL-13 = assay: Ovalbumin-induced mouse model of asthma: cytokines in lung tissue (immunoblot); format: in vivo; conditions: ovalbumin-sensitized asthmatic mice
# Procedure: as §2
# When a Bst2 or Damp1 decoy was injected into a mouse model of asthma which was induced by sensitization and challenge with ovalbumin, expression levels of cytokines (interleukin-4 (IL-4), interleukin-5 (IL-5) and interleukin-13 (IL-13)) were measured as follows. […] The bound primary antibodies were detected with a HRP-conjugated secondary antibody (anti-rabbit HRP-conjugated IgG) using ECL reagent.
# Expression of 11-4, IL-5 and IL-13 was measured in the murine asthma model as described in Example 8-3 after injection with Bst2 decoy or Bst2 decoy Fc fusion proteins.
molecule,measurement,setting,value
"Bst2 siRNA: siRNA against Bst2 mRNA target sequence SEQ ID NO:5; sense SEQ ID NO:6, antisense SEQ ID NO:7 (sense UUGUCCGCGAUUCUCACGCTT; antisense GCGUGAGAAUCGCGGACAATT; sugars from the 5' end r19 d2, backbone not given here)",ICAM1 expression,[1],does not affect
same,U937 cell adhesion to HUVECs,"HUVECs and U937 cells; HUVECs transfected with Bst2 expression vector, with or without IFN-γ",decreased U937 cell adhesion
same,cell adhesion between untransfected HUVEC and U937 cells,"HUVECs and U937 cells; untransfected HUVEC, IFNγ stimulation",inhibitory effect
B1,metabolic degradation (in vivo stability),[2],improved metabolic degradation
B2,"number of infiltrating cells in bronchoalveolar lavage (total, neutrophils, eosinophils, lymphocytes)",mouse model of asthma,did not block immune cell infiltration significantly
B3,cell-cell interaction between human endothelial cells and human monocytic U937 cells,HUVECs and U937 cells,inhibits cell-cell interaction
B4,inhibition of U937 cell binding to Bst2 decoy coated cell culture plates,U937 cells,concentration-dependent inhibition
same,"cytokine levels (IL-4, IL-5, IL-13) in lung tissue","IL-4, IL-5 and IL-13",decreased
